Experimental data: paper PMC2139940 (The Journal of Cell Biology, 1997)

T1: GST fusion protein with α catenin (mouse, UniProt P26231 1-906)
T1 sequence (looked up): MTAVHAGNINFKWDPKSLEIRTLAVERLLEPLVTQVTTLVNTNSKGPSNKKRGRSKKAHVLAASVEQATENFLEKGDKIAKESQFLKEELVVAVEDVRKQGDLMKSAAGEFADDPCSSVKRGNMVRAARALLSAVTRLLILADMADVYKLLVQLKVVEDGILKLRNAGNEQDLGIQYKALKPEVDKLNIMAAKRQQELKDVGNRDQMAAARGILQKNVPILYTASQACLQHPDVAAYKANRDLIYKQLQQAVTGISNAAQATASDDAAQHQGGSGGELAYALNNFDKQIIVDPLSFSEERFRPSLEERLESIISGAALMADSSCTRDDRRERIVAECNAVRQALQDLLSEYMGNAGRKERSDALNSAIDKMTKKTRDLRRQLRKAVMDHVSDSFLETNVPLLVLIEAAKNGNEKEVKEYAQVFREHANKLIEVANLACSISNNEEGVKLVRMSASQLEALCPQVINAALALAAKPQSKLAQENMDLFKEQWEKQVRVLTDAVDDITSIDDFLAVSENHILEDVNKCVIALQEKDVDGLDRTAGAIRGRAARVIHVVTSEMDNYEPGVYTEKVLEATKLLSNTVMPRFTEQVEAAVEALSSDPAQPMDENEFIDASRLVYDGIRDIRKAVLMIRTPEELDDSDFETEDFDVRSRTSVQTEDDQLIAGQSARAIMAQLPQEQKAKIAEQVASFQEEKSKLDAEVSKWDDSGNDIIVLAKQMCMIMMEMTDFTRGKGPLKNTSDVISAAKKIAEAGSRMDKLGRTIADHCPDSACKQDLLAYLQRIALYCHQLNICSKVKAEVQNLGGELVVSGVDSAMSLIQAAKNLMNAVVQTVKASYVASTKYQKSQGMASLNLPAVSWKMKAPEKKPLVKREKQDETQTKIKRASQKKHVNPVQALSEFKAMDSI


Key:
[1] = target: T1, GST fusion protein with α catenin; assay: pull-down
[2] = target: actin filaments (actin purified from rabbit skeletal muscle, polymerized) (rabbit, UniProt P68135 1-377); assay: co-sedimentation

Kd [1] | Kd [2] | Binder
~0.5 nM | – | recombinant amino-terminal half dlg-like domain of ZO-1 (N-ZO-1; 1–862 aa) produced in Sf9 cells (domain or fragment, mouse, UniProt P39447 1-862, looked up) MSARAAAAKSTAMEETAIWEQHTVTLHRAPGFGFGIAISGGRDNPHFQSGETSIVISDVLKGGPAEGQLQENDRVAMVNGVSMDNVEHAFAVQQLRKSGKNAKITIRRKKKVQIPVSHPDPEPVSDNEDDSYDEEVHDPRAGRGALANRRSEKSWARDRSASRERSLSPRSDRRSVASSQPAKPTKVTLVKSRKNEEYGLRLASHIFVKEISQDSLAARDGNIQEGDVVLKINGTVTENMSLTDAKTLIERSKGKLKMVVQRDERATLLNVPDLSDSIHSANASERDDISEIQSLASDHSGRSHDRPPRRSQSRSPDQRSEPSDHSTQSPQQPSNGSLRSREEERMSKPGAISTPVKHVDDHPPKAVEEVTVEKNEKQTPTLPEPKPVYAQVGQPDVDLPVSPSDGALPNSAHEDGILRPSMKLVKFRKGDSVGLRLAGGNDVGIFVAGVLEDSPAAKEGLEEGDQILRVNNVDFTNIIREEAVLFLLDLPKGEEVTILAQKKKDVYRRIVESDVGDSFYIRTHFEYEKESPYGLSFNKGEVFRVVDTLYNGKLGSWLAIRIGKNHKEVERGIIPNKNRAEQLASVQYTLPKTAGGDRADFWRFRGLRSSKRNLRKSREDLSAQPVQTKFPAYERVVLREAGFLRPVTIFGPIADVAREKLAREEPDIYQIAKSEPRDAGTDHRSSGIIRLHTIKQIIDQDKHALLDVTPNAVDRLNYAQWYPIVVFLNPDSKQGVKTMRMRLCPESRKSARKLYERSHKLRKNNHHLFTTTINLNSMNDGWYGALKEAIQQQQNQLVWVSEGKADGATSDDLDLHDDRLSYLSAPGSEYSMYSTDSRHTSDYEDTDTEGGAYTDQELDETL
– | ~10 nM | recombinant carboxyl-terminal half of ZO-1 (C-ZO-1; 863–1745 aa) produced in Sf9 cells (domain or fragment) NDEVGTPPESAITRSSEPVREDSSGMHHENQTYPPYSPQAQPQAIHRIDSPGLKPASQQKAEASSPVPYLSPETTPASSASAVNHNVSVTNVSLEEPAPAPPTSHASQPGCLGAPSAEAAHVVLRGEGPPLPPHADPAKVYRKEPYSEEMMRQNHILKQPALGHPGQRPDKEPNLAYEPQLPYIEKQASRDLEQPSYRYEVSSYTDQFSRNYDHRLRFEDRIPTYEDQWSYYDDKQPYQPRPFENQHPRDLDSRQHPEEASERGYFQRFEEPAPLSYDSRTRYEQLPRTSTLRHEEQPAPAYEVHNRYRPEAQPYSSTGPKSSEPKQYFDQYPRSYEQVPPPGFTSKTGHYEPLHGAAVVPPLIPSSQQKPEVLPSATKPQPPPPTLTEEEEDPAMKPQSVLTRVKMFENKRSASLENKKDVNDTASFKPPEVASKPPGASLAGPKPVPQSQFSEHDKTLYRLPEPQKPQVKPPEDIVRSNHYDPEEDEEYYRKQLSYFDRRSFESKPSAHLPAGHHSEPAKPVHSQSQPNFSSYSSKGKPETDAVDRSFSEKRYDPAQATPPPPPLPSQYSQPAPPLSSSSLHIHSKGAQGEGNSVSLDFQNSYMSKPDPPPSQSKPATFRPPTREDPPQTFYPQKSFPDKAPVNGAEQTQKTITPVYNRFTPKPYTSSARPFERKFESPKFNHNLLPSETVHKPELSSKTPTSPKTLMKAHSSTQPPEFDSGVETFSVHTDKPKYQMNNISTMPKAVPVSPSAVEEDEDEDGHTVVATARGIFNSNGGVLSSIETGVSIIIPQGAIPEGIEQEIYFKVCRDNSILPPLDKEKGETLLSPLVMCGPHGLKFLKPVELRLPHCDPKTWQNKCLPGDPNYLVGANCVSVLIDHF
